This passage reports Kd results from article PMC10287905, “Proper RPA acetylation promotes accurate DNA replication and repair” (Nucleic Acids Research, 2023).

Assay in all cases: MST; RED-tris-NTA labelled 6xHis-Rtt105 at constant 100 nM, serial dilutions of RPA complex from 200 to 0.0058 nM; 1x PBS with 0.05% Tween 20; 50 min at room temperature; Monolith NT.115
Common to all, as to conditions: both partners purified

In experiment [1] the target is T1, 4KR RPA complex (yeast, UniProt P22336 1-621; P26754 1-273; P26755 1-122, K259R | K427R | K463R | K494R).
T1 construct: Rfa1, largest subunit of yeast RPA, four lysines mutated to arginine; Rfa2, subunit of yeast RPA; Rfa3, subunit of yeast RPA; also called 4KR mutant RPA; source: purified from yeast cells; copies: + +
T1 sequence (P22336 whole entry K259R/K427R/K463R/K494R, chain 1 of 3): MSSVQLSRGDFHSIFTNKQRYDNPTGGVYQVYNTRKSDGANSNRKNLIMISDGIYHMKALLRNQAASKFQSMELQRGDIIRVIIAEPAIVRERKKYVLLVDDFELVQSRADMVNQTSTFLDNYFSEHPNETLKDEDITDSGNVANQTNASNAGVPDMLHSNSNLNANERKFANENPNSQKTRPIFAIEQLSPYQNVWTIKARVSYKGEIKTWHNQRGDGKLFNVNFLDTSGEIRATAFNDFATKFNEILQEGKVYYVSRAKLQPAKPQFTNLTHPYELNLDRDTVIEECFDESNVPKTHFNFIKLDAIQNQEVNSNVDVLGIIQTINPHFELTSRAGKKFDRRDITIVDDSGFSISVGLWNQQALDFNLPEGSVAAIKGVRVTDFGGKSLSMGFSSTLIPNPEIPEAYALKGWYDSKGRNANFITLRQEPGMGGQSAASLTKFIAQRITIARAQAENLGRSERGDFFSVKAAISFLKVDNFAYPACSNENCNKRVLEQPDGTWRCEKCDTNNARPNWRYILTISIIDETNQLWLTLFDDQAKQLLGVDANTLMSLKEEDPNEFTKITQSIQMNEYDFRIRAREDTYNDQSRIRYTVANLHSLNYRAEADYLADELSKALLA
T1 sequence (P26754 whole entry, chain 2 of 3): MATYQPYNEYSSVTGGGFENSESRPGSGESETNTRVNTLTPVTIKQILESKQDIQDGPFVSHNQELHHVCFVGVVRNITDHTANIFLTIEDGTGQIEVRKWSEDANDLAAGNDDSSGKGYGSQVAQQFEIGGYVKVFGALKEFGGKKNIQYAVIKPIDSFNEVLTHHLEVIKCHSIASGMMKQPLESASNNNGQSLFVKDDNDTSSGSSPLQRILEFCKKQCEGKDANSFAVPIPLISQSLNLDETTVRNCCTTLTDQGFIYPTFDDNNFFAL
T1 sequence (P26755 whole entry, chain 3 of 3): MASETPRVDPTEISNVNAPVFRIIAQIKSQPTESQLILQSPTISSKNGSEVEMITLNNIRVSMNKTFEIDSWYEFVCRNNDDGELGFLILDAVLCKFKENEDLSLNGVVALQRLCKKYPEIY

Experiment [2] concerns the target T2, WT RPA complex (yeast, UniProt P22336 1-621; P26754 1-273; P26755 1-122).
T2 construct: Rfa1, largest subunit of yeast RPA; Rfa2, subunit of yeast RPA; Rfa3, subunit of yeast RPA; the MST methods say only 'RPA complex'; source: purified from yeast cells; copies: + +

For experiment [3], the target named is T3, 4KQ RPA complex (yeast, UniProt P22336 1-621; P26754 1-273; P26755 1-122, K259Q | K427Q | K463Q | K494Q).
T3 construct: Rfa1, largest subunit of yeast RPA, four lysines mutated to glutamine; Rfa2, subunit of yeast RPA; Rfa3, subunit of yeast RPA; also called 4KQ mutant RPA; source: purified from yeast cells; copies: + +
T3 sequence (P22336 whole entry K259Q/K427Q/K463Q/K494Q, chain 1 of 3): as the sequence (P22336 whole entry K259R/K427R/K463R/K494R, chain 1 of 3) above, with R259Q, R427Q, R463Q, R494Q counted along it
T3 sequence (P26754 whole entry, chain 2 of 3): as the sequence (P26754 whole entry, chain 2 of 3) above
T3 sequence (P26755 whole entry, chain 3 of 3): as the sequence (P26755 whole entry, chain 3 of 3) above

T2 sequence (P22336 whole entry, chain 1 of 3): as the sequence (P22336 whole entry K259R/K427R/K463R/K494R, chain 1 of 3) above, with R259K, R427K, R463K, R494K counted along it
T2 sequence (P26754 whole entry, chain 2 of 3): as the sequence (P26754 whole entry, chain 2 of 3) above
T2 sequence (P26755 whole entry, chain 3 of 3): as the sequence (P26755 whole entry, chain 3 of 3) above

B1: 6xHis-Rtt105 (natural protein, yeast, UniProt P40063 1-208, looked up)
chain: MYSNHNLNSDDCCFDWNEEKAAELQRTGVSFDRSLTPQSLRTSTRRLSEENKQQSGTMHIDTSPSVVSDIISSRRDRSQDFFGPHSSSPIAPSERQRADQRSRLESMRLTRRRDKMTKVRGGLEKMEEMIMQGEHLREMQRLKQEAQKNALPSDMAEYMEWQNNEDLEDDELLAFIEKQETYKNELEHFLNNANKNVYENNSYPNSHT
modifications: labelled with a RED-tris-NTA protein labelling kit
notes: Rtt105, yeast RPA chaperone protein
As a reminder, the Kd is a measure of binding affinity in units of concentration. Turning to B1, the Kd in experiment [1] is ~1.17 nM; in experiment [2], ~1.06 nM; in experiment [3] it was ~0.51 nM.
